According to US12584139B2, “Nucleic acid construct set, kit, detection method and method for predicting drug effect” (KABUSHIKI KAISHA TOSHIBA, priority 2020, dated 2026):

B1: vector 1-10: CMV-promoter vector with Cre gene cleaved by ApaI/NheI, 10-base homologous sequences at the cleavage site (from SEQ ID NO: 9) (nucleic acid)
DNA: AGTGAACCGTCAGATCCTCGAGATCTGCGATCTAAGTAATGTCCAATTTACTGACCGTACACCAAAATTTGCCTGCATTACCGGTCGATGCAACGAGTGATGAGGTTCGCAAGAACCTGATGGACATGTTCAGGGATCGCCAGGCGTTTTCTGAGCATACCTGGAAAATGCTTCTGTCCGTTTGCCGGTCGTGGGCGGCATGGTGCAAGTTGAATAACCGGAAATGGTTTCCCGCAGAACCTGAAGATGTTCGCGATTATCTTCTATATCTTCAGGCGCGCGGTCTGGCAGTAAAAACTATCCAGCAACATTTGGGCCAGCTAAACATGCTTCATCGTCGGTCCGGGCTGCCACGACCAAGTGACAGCAATGCTGTTTCACTGGTTATGCGGCGGGGCCCGTTAACGCTAGCTTATGCGGCGGATCCGAAAAGAAAACGTTGATGCCGGTGAACGTGCAAAACAGGCTCTAGCGTTCGAACGCACTGATTTCGACCAGGTTCGTTCACTCATGGAAAATAGCGATCGCTGCCAGGATATACGTAATCTGGCATTTCTGGGGATTGCTTATAACACCCTGTTACGTATAGCCGAAATTGCCAGGATCAGGGTTAAAGATATCTCACGTACTGACGGTGGGAGAATGTTAATCCATATTGGCAGAACGAAAACGCTGGTTAGCACCGCAGGTGTAGAGAAGGCACTTAGCCTGGGGGTAACTAAACTGGTCGAGCGATGGATTTCCGTCTCTGGTGTAGCTGATGATCCGAATAACTACCTGTTTTGCCGGGTCAGAAAAAATGGTGTTGCCGCGCCATCTGCCACCAGCCAGCTATCAACTCGCGCCCTGGAAGGGATTTTTGAAGCAACTCATCGATTGATTTACGGCGCTAAGGATGACTCTGGTCAGAGATACCTGGCCTGGTCTGGACACAGTGCCCGTGTCGGAGCCGCGCGAGATATGGCCCGCGCTGGAGTTTCAATACCGGAGATCATGCAAGCTGGTGGCTGGACCAATGTAAATATTGTCATGAACTATATCCGTAACCTGGATAGTGAAACAGGGGCAATGGTGCGCCTGCTGGAAGATGGCGATTAGGGCCGCGACTCTAGAACTAGTGGATCCCCC
modifications: misc_feature 1..1128 vector 1-10
B2: vector 1-20: CMV-promoter vector with Cre gene cleaved by ApaI/NheI, 20-base homologous sequences at the cleavage site (from SEQ ID NO: 10) (nucleic acid)
DNA: AGTGAACCGTCAGATCCTCGAGATCTGCGATCTAAGTAATGTCCAATTTACTGACCGTACACCAAAATTTGCCTGCATTACCGGTCGATGCAACGAGTGATGAGGTTCGCAAGAACCTGATGGACATGTTCAGGGATCGCCAGGCGTTTTCTGAGCATACCTGGAAAATGCTTCTGTCCGTTTGCCGGTCGTGGGCGGCATGGTGCAAGTTGAATAACCGGAAATGGTTTCCCGCAGAACCTGAAGATGTTCGCGATTATCTTCTATATCTTCAGGCGCGCGGTCTGGCAGTAAAAACTATCCAGCAACATTTGGGCCAGCTAAACATGCTTCATCGTCGGTCCGGGCTGCCACGACCAAGTGACAGCAATGCTGTTTCACTGGTTATGCGGCGGATCCGAAAAGGGCCCGTTAACGCTAGCTTATGCGGCGGATCCGAAAAGAAAACGTTGATGCCGGTGAACGTGCAAAACAGGCTCTAGCGTTCGAACGCACTGATTTCGACCAGGTTCGTTCACTCATGGAAAATAGCGATCGCTGCCAGGATATACGTAATCTGGCATTTCTGGGGATTGCTTATAACACCCTGTTACGTATAGCCGAAATTGCCAGGATCAGGGTTAAAGATATCTCACGTACTGACGGTGGGAGAATGTTAATCCATATTGGCAGAACGAAAACGCTGGTTAGCACCGCAGGTGTAGAGAAGGCACTTAGCCTGGGGGTAACTAAACTGGTCGAGCGATGGATTTCCGTCTCTGGTGTAGCTGATGATCCGAATAACTACCTGTTTTGCCGGGTCAGAAAAAATGGTGTTGCCGCGCCATCTGCCACCAGCCAGCTATCAACTCGCGCCCTGGAAGGGATTTTTGAAGCAACTCATCGATTGATTTACGGCGCTAAGGATGACTCTGGTCAGAGATACCTGGCCTGGTCTGGACACAGTGCCCGTGTCGGAGCCGCGCGAGATATGGCCCGCGCTGGAGTTTCAATACCGGAGATCATGCAAGCTGGTGGCTGGACCAATGTAAATATTGTCATGAACTATATCCGTAACCTGGATAGTGAAACAGGGGCAATGGTGCGCCTGCTGGAAGATGGCGATTAGGGCCGCGACTCTAGAACTAGTGGATCCCCC
modifications: misc_feature 1..1138 vector 1-20
B3: vector 1-30: CMV-promoter vector with Cre gene cleaved by ApaI/NheI, 30-base homologous sequences at the cleavage site (from SEQ ID NO: 11) (nucleic acid)
DNA: AGTGAACCGTCAGATCCTCGAGATCTGCGATCTAAGTAATGTCCAATTTACTGACCGTACACCAAAATTTGCCTGCATTACCGGTCGATGCAACGAGTGATGAGGTTCGCAAGAACCTGATGGACATGTTCAGGGATCGCCAGGCGTTTTCTGAGCATACCTGGAAAATGCTTCTGTCCGTTTGCCGGTCGTGGGCGGCATGGTGCAAGTTGAATAACCGGAAATGGTTTCCCGCAGAACCTGAAGATGTTCGCGATTATCTTCTATATCTTCAGGCGCGCGGTCTGGCAGTAAAAACTATCCAGCAACATTTGGGCCAGCTAAACATGCTTCATCGTCGGTCCGGGCTGCCACGACCAAGTGACAGCAATGCTGTTTCACTGGTTATGCGGCGGATCCGAAAAGAAAACGTTGGGGCCCGTTAACGCTAGCTTATGCGGCGGATCCGAAAAGAAAACGTTGATGCCGGTGAACGTGCAAAACAGGCTCTAGCGTTCGAACGCACTGATTTCGACCAGGTTCGTTCACTCATGGAAAATAGCGATCGCTGCCAGGATATACGTAATCTGGCATTTCTGGGGATTGCTTATAACACCCTGTTACGTATAGCCGAAATTGCCAGGATCAGGGTTAAAGATATCTCACGTACTGACGGTGGGAGAATGTTAATCCATATTGGCAGAACGAAAACGCTGGTTAGCACCGCAGGTGTAGAGAAGGCACTTAGCCTGGGGGTAACTAAACTGGTCGAGCGATGGATTTCCGTCTCTGGTGTAGCTGATGATCCGAATAACTACCTGTTTTGCCGGGTCAGAAAAAATGGTGTTGCCGCGCCATCTGCCACCAGCCAGCTATCAACTCGCGCCCTGGAAGGGATTTTTGAAGCAACTCATCGATTGATTTACGGCGCTAAGGATGACTCTGGTCAGAGATACCTGGCCTGGTCTGGACACAGTGCCCGTGTCGGAGCCGCGCGAGATATGGCCCGCGCTGGAGTTTCAATACCGGAGATCATGCAAGCTGGTGGCTGGACCAATGTAAATATTGTCATGAACTATATCCGTAACCTGGATAGTGAAACAGGGGCAATGGTGCGCCTGCTGGAAGATGGCGATTAGGGCCGCGACTCTAGAACTAGTGGATCCCCC
modifications: misc_feature 1..1148 vector 1-30

These molecules were tested on human mammary tumor-derived cell line (MCF-7) (assay: NanoLuc luminescence assay after transfection of lipid particles encapsulating vectors 1 and vector 2). Settings: vector 1 (50 ng/well) together with vector 2 (1 ng/well), MCF-7, 48 hours.
Assay type: cell-based
Method: A human mammary tumor-derived cell line (MCF-7) was subjected to adhesion culture at 37° C. in a 5% CO2 atmosphere in a culture flask using a medium (MEM, GIBCO) to which 10% fetal bovine serum (FBS) was added. After the culture, the medium was removed, and the cells were washed with PBS, and then the cells were detached by 0.25% trypsin-EDTA treatment. Then, the cells were suspended in a medium to which 10% FBS was added to inactivate trypsin. After recovering the cells by centrifugation, the cells were suspended in a medium to which 10% FBS was added to be 2.0×10^5 cells/mL. To a 96 well culture dish (manufactured by Thermo Fisher Scientific), 200 μL of the cell suspension was added to be 4.0×10^4 cells/well.
Next, the lipid particles encapsulating the three types of vectors 1 prepared in Example 3 were added to the wells to be a DNA concentration of 50 ng/well. At the same time, the lipid particles encapsulating the vector 2 prepared in Example 3 were further added to the wells to be a DNA concentration of 1 ng/well. As a control, a well to which only the vector 2 was added was also provided. Therefore, a sample to which only the vector 2 was added, a sample to which the vector 1-10 and the vector 2 were added, a sample to which the vector 1-20 and the vector 2 were added, and a sample to which the vector 1-30 and the vector 2 were added were obtained. After the addition, the cells were cultured at 37° C. in a 5% CO2 atmosphere.
48 hours after the addition of the lipid particles, the culture plate was taken out of the incubator, and the medium was removed. Then, the cells were washed with PBS, Glo Lysis Buffer (Promega) was added thereto at 100 μL/well, and the resulting mixtures were frozen at −80° C. for 30 minutes. The mixtures were melted at room temperature and then collected in 1.5 ml centrifuge tubes. The cell lysates were centrifuged at 15,000 rpm for 10 minutes to precipitate cell residues, and 25 μL of supernatant was dispensed into a 96 well plate (Black, Nunc). To the dispensed supernatant, 25 μL of a luciferase substrate solution contained in a luciferase assay system (Nano-Glo (registered trademark) Luciferase Assay System, Promega Corporation) was added and mixed. The luminescence amount of the resulting mixture per 1 well per 0.1 seconds was measured by using a luminometer (Mithras LB 940, Berthold).

| Molecule | luminescence amount ratio (luminescence intensity with vector 2 alone assumed to be 1) |
| --- | --- |
| B1 | 0.45 |
| B2 | 0.31 |
| B3 | 0.37 |

Same assay, conditions: vector 1 (50 ng/well) transfected together with vector 2 (1 ng/well), lipid particles, MCF-7, 48 hours after addition

| Molecule | NanoLuc luminescence intensity (RLU) |
| --- | --- |
| B1 | about 2.9×10^5 RLU |
| B2 | ~2.0×10^5 RLU |
| B3 | ~2.4×10^5 RLU |
